Measurements from PMC11612440 (2024).
Where two headings read alike, the source gives them in different places.

T1: BCL11B protein, MBP-tag-fused recombinant (pETMBP.3C-Bcl11b) (mouse, UniProt Q99PV8 1-884)
T1 chain: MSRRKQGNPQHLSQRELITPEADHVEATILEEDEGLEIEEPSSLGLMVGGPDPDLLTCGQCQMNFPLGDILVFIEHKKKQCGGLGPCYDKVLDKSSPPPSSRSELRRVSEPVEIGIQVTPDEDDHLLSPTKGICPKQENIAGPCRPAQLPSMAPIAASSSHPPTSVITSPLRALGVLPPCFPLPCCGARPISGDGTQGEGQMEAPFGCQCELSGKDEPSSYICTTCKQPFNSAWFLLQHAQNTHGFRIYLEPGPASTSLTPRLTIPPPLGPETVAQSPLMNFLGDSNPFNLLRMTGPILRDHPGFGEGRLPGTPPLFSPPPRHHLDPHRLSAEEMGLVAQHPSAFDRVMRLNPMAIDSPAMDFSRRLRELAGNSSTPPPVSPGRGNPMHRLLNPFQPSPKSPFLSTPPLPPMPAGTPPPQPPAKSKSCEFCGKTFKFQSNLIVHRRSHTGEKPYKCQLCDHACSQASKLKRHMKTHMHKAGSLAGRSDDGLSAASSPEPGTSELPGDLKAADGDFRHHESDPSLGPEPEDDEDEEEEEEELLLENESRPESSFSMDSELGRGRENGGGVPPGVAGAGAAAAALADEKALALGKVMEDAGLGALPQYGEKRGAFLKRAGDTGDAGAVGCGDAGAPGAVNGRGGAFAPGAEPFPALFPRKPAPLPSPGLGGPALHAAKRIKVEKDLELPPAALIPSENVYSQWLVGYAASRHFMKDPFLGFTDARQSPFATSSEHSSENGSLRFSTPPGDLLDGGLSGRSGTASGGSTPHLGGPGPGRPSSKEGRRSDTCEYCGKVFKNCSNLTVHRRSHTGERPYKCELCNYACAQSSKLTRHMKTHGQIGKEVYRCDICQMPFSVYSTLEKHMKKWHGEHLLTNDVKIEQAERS


Legend:
[1] = target: T1, BCL11B protein, MBP-tag-fused …; experiment: SPR
[2] = target: T1, BCL11B protein, MBP-tag-fused …; experiment: SPR

Binder	Kd [1] [nM]	Kd [2] [nM]
MBD3, MBP-tag-fused recombinant (pETMBP.3C-Mbd3) (natural protein) MERKRWECPALPQGWEREEVPRRSGLSAGHRDVFYYSPSGKKFRSKPQLARYLGGSMDLSTFDFRTGKMLMNKMNKSRQRVRYDSSNQVKGKPDLNTALPVRQTASIFKQPVTKITNHPSNKVKSDPQKAVDQPRQLFWEKKLSGLSAFDIAEELVRTMDLPKGLQGVGPGCTDETLLSAIASALHTSTLPITGQLSAAVEKNPGVWLNTAQPLCKAFMVTDDDIRKQEELVQQVRKRLEEALMADMLAHVEELARDGEAPLDKACAEEEEEEEEEEEEPEPERV	2.42	
β-catenin, MBP-tag-fused recombinant (pETMBP.3C-β-catenin) (natural protein) MATQADLMELDMAMEPDRKAAVSHWQQQSYLDSGIHSGATTTAPSLSGKGNPEEEDVDTSQVLYEWEQGFSQSFTQEQVADIDGQYAMTRAQRVRAAMFPETLDEGMQIPSTQFDAAHPTNVQRLAEPSQMLKHAVVNLINYQDDAELATRAIPELTKLLNDEDQVVVNKAAVMVHQLSKKEASRHAIMRSPQMVSAIVRTMQNTNDVETARCTAGTLHNLSHHREGLLAIFKSGGIPALVKMLGSPVDSVLFYAITTLHNLLLHQEGAKMAVRLAGGLQKMVALLNKTNVKFLAITTDCLQILAYGNQESKLIILASGGPQALVNIMRTYTYEKLLWTTSRVLKVLSVCSSNKPAIVEAGGMQALGLHLTDPSQRLVQNCLWTLRNLSDAATKQEGMEGLLGTLVQLLGSDDINVVTCAAGILSNLTCNNYKNKMMVCQVGGIEALVRTVLRAGDREDITEPAICALRHLTSRHQEAEMAQNAVRLHYGLPVVVKLLHPPSHWPLIKATVGLIRNLALCPANHAPLREQGAIPRLVQLLVRAHQDTQRRTSMGGTQQQFVEGVRMEEIVEGCTGALHILARDVHNRIVIRGLNTIPLFVQLLYSPIENIQRVAAGVLCELAQDKEAAEAIEAEGATAPLTELLHSRNEGVATYAAAVLFRMSEDKPQDYKKRLSVELTSSLFRTEPMAWNETADLGLDIGAQGEALGYRQDDPSYRSFHSGGYGQDALGMDPMMEHEMGGHHPGADYPVDGLPDLGHAQDLMDGLPPGDSNQLAWFDTDL		0.609
